From patent publication US20180030151A1 (MOGAM INSTITUTE FOR BIOMEDICAL RESEARCH, published 2018)
Positions count from the first letter of the chain named. Read-outs that look alike come from different tables or passages of the source. Each block holds one binder with its values, some of them ahead of it.

Columns and labels:
Assay in all cases: cell-based or functional assay
[1] = target: T1, recombinant human TFPI (tissue factor pathway inhibitor) (human, UniProt P10646 29-304)
[2] = target: T1, recombinant human TFPI (tissue factor …); remark: listed apart in the source
[3] = target: T1, recombinant human TFPI (tissue factor …); remark: listed apart in the source
[4] = target: T1, recombinant human TFPI (tissue factor …); remark: listed apart in the source
[5] = target: T1, recombinant human TFPI (tissue factor …); remark: listed apart in the source
[6] = target: T1, recombinant human TFPI (tissue factor …); remark: listed apart in the source
[7] = target: T1, recombinant human TFPI (tissue factor …); remark: listed apart in the source
[8] = target: T1, recombinant human TFPI (tissue factor …); remark: listed apart in the source
[9] = target: T1, recombinant human TFPI (tissue factor …); remark: listed apart in the source
[10] = target: T1, recombinant human TFPI (tissue factor …); remark: listed apart in the source

% of Normalized, TF/FVIIa/FX complex assay (FX 5 nM), Ab 1.56 nM [1]: 5.6% | % of Normalized, TF/FVIIa/FX complex assay (FX 5 nM), Ab 3.13 nM [1]: 5.7% | % of Normalized, TF/FVIIa/FX complex assay (FX 5 nM), Ab 6.25 nM [1]: 7.2% | % of Normalized, TF/FVIIa/FX complex assay (FX 5 nM), Ab 12.5 nM [1]: 17.4% | % of Normalized, TF/FVIIa/FX complex assay (FX 5 nM), Ab 25 nM [1]: 65.1% | % of Normalized, TF/FVIIa/FX complex assay (FX 5 nM), Ab 50 nM [1]: 91.8% | % of Normalized, TF/FVIIa/FX complex assay (FX 5 nM), Ab 100 nM [1]: 104% | A405, TF/FVIIa/FX complex assay (FX 5 nM), Ab 1.56 nM [2]: 0.045 | A405, TF/FVIIa/FX complex assay (FX 5 nM), Ab 3.13 nM [2]: 0.046 | A405, TF/FVIIa/FX complex assay (FX 5 nM), Ab 6.25 nM [2]: 0.059 | A405, TF/FVIIa/FX complex assay (FX 5 nM), Ab 12.5 nM [2]: 0.141 | A405, TF/FVIIa/FX complex assay (FX 5 nM), Ab 25 nM [2]: 0.527 | A405, TF/FVIIa/FX complex assay (FX 5 nM), Ab 50 nM [2]: 0.743 | A405, TF/FVIIa/FX complex assay (FX 5 nM), Ab 100 nM [2]: 0.842 | FXa assay % of FXa alone, 2.5 nM Ab, 10 nM TFPI [3]: 10.8% | FXa assay % of FXa alone, 5 nM Ab, 10 nM TFPI [3]: 45.5% | FXa assay OD, 2.5 nM Ab, 10 nM TFPI [3]: 0.0825 | FXa assay OD, 5 nM Ab, 10 nM TFPI [3]: 0.346 | FXa assay OD, 10 nM Ab, 10 nM TFPI [3]: 0.536 | FXa assay OD, 20 nM Ab, 10 nM TFPI [3]: 0.618 | effect of inhibiting TFPI, FXa activity assay, Ab 10 nM [4]: ~70% | effect of inhibiting TFPI, FXa activity assay, Ab 20 nM [4]: ~81%
B1: clone 3 (antibody, V domains shown)
VH: EVQLVESGGGLVKPGGSLRLSCAASGFTFSSYAMNWVRQAPGKGLEWVGTITTGGSHTYYADSVDGRFTISRDNAKNSLYLQMNSLRAEDTAVYYCARQDGNFLMDYWGQGTLVTVSS
VL: DVVMTQTPLSLPVTLGQPASISCKSSPSLLDVDGKTYLNWLQQRPGQSPKRLIYLVSKLDSGVPDRFTGSGSGTDFTLKISRVEAEDVGVYYCWQGTHFPFTFGQGTKVEIKR

FXa assay % of FXa alone, 2.5 nM Ab, 10 nM TFPI [5]: 6.2% | FXa assay % of FXa alone, 5 nM Ab, 10 nM TFPI [5]: 13.5% | FXa assay % of FXa alone, 10 nM Ab, 10 nM TFPI [5]: 48.5% | FXa assay % of FXa alone, 20 nM Ab, 10 nM TFPI [5]: 68% | FXa assay OD, 2.5 nM Ab, 10 nM TFPI [5]: 0.0505 | FXa assay OD, 5 nM Ab, 10 nM TFPI [5]: 0.11 | FXa assay OD, 10 nM Ab, 10 nM TFPI [5]: 0.394 | FXa assay OD, 20 nM Ab, 10 nM TFPI [5]: 0.552 | A405, TF/FVIIa/FX complex assay, Ab 1.56 nM [6]: 0.147 | A405, TF/FVIIa/FX complex assay, Ab 3.13 nM [6]: 0.162 | A405, TF/FVIIa/FX complex assay, Ab 6.25 nM [6]: 0.173 | A405, TF/FVIIa/FX complex assay, Ab 12.5 nM [6]: 0.208 | A405, TF/FVIIa/FX complex assay, Ab 25 nM [6]: 0.424 | A405, TF/FVIIa/FX complex assay, Ab 50 nM [6]: 0.934 | A405, TF/FVIIa/FX complex assay, Ab 100 nM [6]: 0.932 | % of Normalized, TF/FVIIa/FX complex assay, Ab 1.56 nM [7]: 16.1% | % of Normalized, TF/FVIIa/FX complex assay, Ab 3.13 nM [7]: 17.7% | % of Normalized, TF/FVIIa/FX complex assay, Ab 6.25 nM [7]: 18.9% | % of Normalized, TF/FVIIa/FX complex assay, Ab 12.5 nM [7]: 22.7% | % of Normalized, TF/FVIIa/FX complex assay, Ab 25 nM [7]: 46.3% | % of Normalized, TF/FVIIa/FX complex assay, Ab 50 nM [7]: 102% | % of Normalized, TF/FVIIa/FX complex assay, Ab 100 nM [7]: 102%
B2: clone 3203 (antibody, V domains shown)
VH: B1 VH with N35S, G49S, H57Y, D65E
VL: B1 VL with P27Q, V32L

A405, TF/FVIIa/FX complex assay, Ab 1.56 nM [8]: 0.14 | A405, TF/FVIIa/FX complex assay, Ab 3.13 nM [8]: 0.151 | A405, TF/FVIIa/FX complex assay, Ab 6.25 nM [8]: 0.15 | A405, TF/FVIIa/FX complex assay, Ab 12.5 nM [8]: 0.157 | A405, TF/FVIIa/FX complex assay, Ab 25 nM [8]: 0.272 | A405, TF/FVIIa/FX complex assay, Ab 50 nM [8]: 0.77 | A405, TF/FVIIa/FX complex assay, Ab 100 nM [8]: 0.905 | FXa assay % of FXa alone, 2.5 nM Ab, 10 nM TFPI [9]: 6.5% | FXa assay % of FXa alone, 5 nM Ab, 10 nM TFPI [9]: 14.7% | FXa assay OD, 2.5 nM Ab, 10 nM TFPI [9]: 0.0315 | FXa assay OD, 5 nM Ab, 10 nM TFPI [9]: 0.071 | FXa assay OD, 10 nM Ab, 10 nM TFPI [9]: 0.332 | FXa assay OD, 20 nM Ab, 10 nM TFPI [9]: 0.424 | % of Normalized, TF/FVIIa/FX complex assay, Ab 1.56 nM [10]: 14.7% | % of Normalized, TF/FVIIa/FX complex assay, Ab 3.13 nM [10]: 15.8% | % of Normalized, TF/FVIIa/FX complex assay, Ab 6.25 nM [10]: 15.7% | % of Normalized, TF/FVIIa/FX complex assay, Ab 12.5 nM [10]: 16.4% | % of Normalized, TF/FVIIa/FX complex assay, Ab 25 nM [10]: 28.5% | % of Normalized, TF/FVIIa/FX complex assay, Ab 50 nM [10]: 80.7% | % of Normalized, TF/FVIIa/FX complex assay, Ab 100 nM [10]: 94.8% | effect of inhibiting TFPI, FXa activity assay, Ab 10 nM [4]: ~69% | effect of inhibiting TFPI, FXa activity assay, Ab 20 nM [4]: ~88%
B3: clone 1123 (antibody, V domains shown)
VH: B1 VH with G49S, D65E, N102H
VL: B1 VL with P27Q, V32I
